These results are taken from patent US20150344570A1 (published 2015).

Assay [1] deals with FcγRIIIa extracellular domain with C-terminal His tag (human, UniProt P08637 17-208). Put plainly: SPR (Biacore), relative binding activity; GpH7-A5/GpH7-B3/GpL16-k0 = 100. (In SPR one partner is held on a chip, and binding of the other changes the refractive index at the surface.)
Target sequence in this assay (P08637 17-208): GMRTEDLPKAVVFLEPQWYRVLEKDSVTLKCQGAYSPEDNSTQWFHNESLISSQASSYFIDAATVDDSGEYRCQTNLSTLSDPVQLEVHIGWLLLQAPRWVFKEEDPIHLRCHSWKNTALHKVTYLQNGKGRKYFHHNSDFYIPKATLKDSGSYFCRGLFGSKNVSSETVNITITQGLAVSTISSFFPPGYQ
In a further assay the target is T1, FcγRIIIa (human, UniProt P08637 17-208).
T1 construct: extracellular domain; also called FcgRIIIa; CD16A; not shown: His tag attached to the C terminus
T1 sequence (P08637 17-208): as above
Put plainly: ratio of SPR KDs: KD of GpH7-A5/GpH7-B78/GpL16-k0 divided by KD of this antibody. Here is the method: To assess this hypothesis, GpH7-A53 (SEQ ID NO: 42) resulting from the introduction of S239D into GpH7-A5 was constructed, and, this is combined with GpH7-B78 introduced with S239D, A330L, and I332E, and the expression and preparation were performed according to the method described in Reference Example 1. The effect of the combination of S239D and S239D, A330L, and I332E was assessed by comparing the FcγRIIIa binding between the heterodimerized and homodimerized antibodies with S239D, A330L, and I332E according to the method described in Reference Example 2 (Table 14).
(§1) Analysis of interaction between objective antibody and the FcγR was carried out using Biacore T100 (GE Healthcare). HBS-EP+ (GE Healthcare) was used as the running buffer, and the measurement temperature was set to 25° C. Chips produced by immobilizing the antigen peptide by the amine coupling method to a Series S Sencor Chip CM5 (GE Healthcare), or alternatively, chips produced by allowing preliminarily biotinylated antigen peptides to interact with and immobilize onto a Series S Sensor Chip SA (certified) (GE Healthcare) were used. Antibodies of interest were captured onto an antigen peptide-immobilized chip, and allowed to interact to each FcγR diluted with running buffer. To regenerate and repeatedly use the chip, the antibodies captured on the chip were washed off by reacting 10 mM glycine-HCl, pH 1.5.
Specifically, to calculate association rate constant ka (L/mol/s) and dissociation rate constant kd (1/s), sensorgrams obtained by measurement were processed for global fitting by Biacore Evaluation Software using 1:1 Langmuir binding model and dissociation constant KD (mol/1) was calculated from the resulting values.

For assay [2], the target named is T2, FcγRIIIa extracellular domain with C-terminal His tag (human, UniProt P08637 17-208).
T2 construct: extracellular domain; also called FcgRIIIa; 3a; not shown: His tag attached to the C terminus
The assay is described as follows: SPR (Biacore), ratio of KD for FcγRIIIa against GpH7-A5/GpH7-B3/GpL16-k0.
From the text: Then, the present inventors introduced I332E into only one H chain, and assessed whether the Tm is elevated as compared to when I332E is introduced into both H chains. Expression vectors inserted with GpH7-A44 (SEQ ID NO: 49) and GpH7-B80 (SEQ ID NO: 50) resulting from the introduction of I332E into GpH7-A5 and GpH7-B3, respectively, were constructed. They were combined with GpH7-B3, GpH7-A5, and GpL16-k0 to express and prepare the following antibodies according to the method described in Reference Example 1: the heterodimerized antibodies GpH7-A5/GpH7-B80/GpL16-k0 and GpH7-A44/GpH7-B3/GpL16-k0 in which only one of the H chains was introduced with I332E, and the homodimerized antibody GpH7-A44/GpH7-B80/GpL16-k0 in which both of the H chains were introduced with I332E. […] Each antibody was assessed for the FcγRIIIa-binding activity according to the method described in Reference Example 2. In addition, the antibodies were compared for the Tm of CH2 domain by thermal shift assay according to the method described in Reference Example 5 (Tables 28 and 29).
as §1
T2 sequence (P08637 17-208): as above
The FcγR-binding activity of each antibody was assessed primarily using as an indicator the FcγR-binding activity and dissociation constant for FcγR.

B1: GpH7-TA4/GpH7-B3-15-02A/GpL16-k0 (antibody, human IgG1, kappa)
heavy 1: QVQLVQSGAEVKKPGASVTVSCKASGYTFTDYEMHWIRQPPGEGLEWIGAIDPKTGDTAYSESFQDRVTLTADKSTSTAYMELSSLTSEDTAVYYCTRFYSYTYWGQGTLVTVSSASTKGPSVFPLAPSSKSTSGGTAALGCLVKDYFPEPVTVSWNSGALTSGVHTFPAVLQSSGLYSLSSVVTVPSSSLGTQTYICNVNHKPSNTKVDKKVEPKSCDKTHTCPPCPAPEYLWGPSVFLFPPKPKDTLMISRTPEVTCVVVDVSHEDPEVKFNWYVDGVEVHNAKTKPREEQYNSTYRVVSVLTVLHQDWLNGKEYKCKVSNKALPAPIEKTISKAKGQPREPQVYTLPPSRKELTKNQVSLTCLVKGFYPSDIAVEWESNGQPENNYKTTPPVLDSDGSFFLYSKLTVDKSRWQQGNVFSCSVMHEALHNRYTQKSLSLSP
heavy 2: not shown
light: DIVMTQSPLSLPVTPGEPASISCQASESLVHSNRNTYLHWYLQKPGQSPQLLIYKVSNRFSGVPDRFSGSGSGTDFTLKISRVEAEDVGVYYCSQNTHVPPTFGQGTKVEIERTVAAPSVFIFPPSDEQLKSGTASVVCLLNNFYPREAKVQWKVDNALQSGNSQESVTEQDSKDSTYSLSSTLTLSKADYEKHKVYACEVTHQGLSSPVTKSFNRGEC
notes: H1 L234Y and G236W; H2 S298A
Take B1: the “FcγRIIIa BINDING ACTIVITY” value in assay [1] was determined as 151%.

B2: GpH7-TA5/GpH7-B3-03-20W/GpL16-k0 (antibody, human IgG1, kappa)
heavy 1: QVQLVQSGAEVKKPGASVTVSCKASGYTFTDYEMHWIRQPPGEGLEWIGAIDPKTGDTAYSESFQDRVTLTADKSTSTAYMELSSLTSEDTAVYYCTRFYSYTYWGQGTLVTVSSASTKGPSVFPLAPSSKSTSGGTAALGCLVKDYFPEPVTVSWNSGALTSGVHTFPAVLQSSGLYSLSSVVTVPSSSLGTQTYICNVNHKPSNTKVDKKVEPKSCDKTHTCPPCPAPEYLGGPSVFLFPPKPKDTLMISRTPEVTCVVVDVSHEDPEVKFNWYVDGVEVHNAKTKPREEQYNATYRVVSVLTVLHQDWLNGKEYKCKVSNKALPAPIEKTISKAKGQPREPQVYTLPPSRKELTKNQVSLTCLVKGFYPSDIAVEWESNGQPENNYKTTPPVLDSDGSFFLYSKLTVDKSRWQQGNVFSCSVMHEALHNRYTQKSLSLSP
heavy 2: not shown
light: DIVMTQSPLSLPVTPGEPASISCQASESLVHSNRNTYLHWYLQKPGQSPQLLIYKVSNRFSGVPDRFSGSGSGTDFTLKISRVEAEDVGVYYCSQNTHVPPTFGQGTKVEIERTVAAPSVFIFPPSDEQLKSGTASVVCLLNNFYPREAKVQWKVDNALQSGNSQESVTEQDSKDSTYSLSSTLTLSKADYEKHKVYACEVTHQGLSSPVTKSFNRGEC
notes: H1 L234Y and S298A; H2 G236W
For B2, in assay [1], the “FcγRIIIa BINDING ACTIVITY” value is 97%.

B3: GpH7-TA6/GpH7-B3-01-15Y/GpL16-k0 (antibody, human IgG1, kappa)
heavy 1: QVQLVQSGAEVKKPGASVTVSCKASGYTFTDYEMHWIRQPPGEGLEWIGAIDPKTGDTAYSESFQDRVTLTADKSTSTAYMELSSLTSEDTAVYYCTRFYSYTYWGQGTLVTVSSASTKGPSVFPLAPSSKSTSGGTAALGCLVKDYFPEPVTVSWNSGALTSGVHTFPAVLQSSGLYSLSSVVTVPSSSLGTQTYICNVNHKPSNTKVDKKVEPKSCDKTHTCPPCPAPELLWGPSVFLFPPKPKDTLMISRTPEVTCVVVDVSHEDPEVKFNWYVDGVEVHNAKTKPREEQYNATYRVVSVLTVLHQDWLNGKEYKCKVSNKALPAPIEKTISKAKGQPREPQVYTLPPSRKELTKNQVSLTCLVKGFYPSDIAVEWESNGQPENNYKTTPPVLDSDGSFFLYSKLTVDKSRWQQGNVFSCSVMHEALHNRYTQKSLSLSP
heavy 2: not shown
light: DIVMTQSPLSLPVTPGEPASISCQASESLVHSNRNTYLHWYLQKPGQSPQLLIYKVSNRFSGVPDRFSGSGSGTDFTLKISRVEAEDVGVYYCSQNTHVPPTFGQGTKVEIERTVAAPSVFIFPPSDEQLKSGTASVVCLLNNFYPREAKVQWKVDNALQSGNSQESVTEQDSKDSTYSLSSTLTLSKADYEKHKVYACEVTHQGLSSPVTKSFNRGEC
notes: H1 G236W and S298A; H2 L234Y
With B3, in assay [1], the “FcγRIIIa BINDING ACTIVITY” value was 103%.

B4: GpH7-A53/GpH7-B78/GpL16-k0 (antibody, human IgG1, kappa)
heavy 1: QVQLVQSGAEVKKPGASVTVSCKASGYTFTDYEMHWIRQPPGEGLEWIGAIDPKTGDTAYSESFQDRVTLTADKSTSTAYMELSSLTSEDTAVYYCTRFYSYTYWGQGTLVTVSSASTKGPSVFPLAPSSKSTSGGTAALGCLVKDYFPEPVTVSWNSGALTSGVHTFPAVLQSSGLYSLSSVVTVPSSSLGTQTYICNVNHKPSNTKVDKKVEPKSCDKTHTCPPCPAPELLGGPDVFLFPPKPKDTLMISRTPEVTCVVVDVSHEDPEVKFNWYVDGVEVHNAKTKPREEQYNSTYRVVSVLTVLHQDWLNGKEYKCKVSNKALPAPIEKTISKAKGQPREPQVYTLPPSRKELTKNQVSLTCLVKGFYPSDIAVEWESNGQPENNYKTTPPVLDSDGSFFLYSKLTVDKSRWQQGNVFSCSVMHEALHNRYTQKSLSLSP
heavy 2: QVQLVQSGAEVKKPGASVTVSCKASGYTFTDYEMHWIRQPPGEGLEWIGAIDPKTGDTAYSESFQDRVTLTADKSTSTAYMELSSLTSEDTAVYYCTRFYSYTYWGQGTLVTVSSASTKGPSVFPLAPSSKSTSGGTAALGCLVKDYFPEPVTVSWNSGALTSGVHTFPAVLQSSGLYSLSSVVTVPSSSLGTQTYICNVNHKPSNTKVDKKVEPKSCDKTHTCPPCPAPELLGGPDVFLFPPKPKDTLMISRTPEVTCVVVDVSHEDPEVKFNWYVDGVEVHNAKTKPREEQYNSTYRVVSVLTVLHQDWLNGKEYKCKVSNKALPLPEEKTISKAKGQPREPQVYTLPPSRDELTKNQVSLTCLVKGFYPSDIAVEWESNGQPENNYKTTPPVLDSDGSFFLYSKLTVDKSRWQQGNVFSCSVMHEALHNHYTQESLSLSP
light: DIVMTQSPLSLPVTPGEPASISCQASESLVHSNRNTYLHWYLQKPGQSPQLLIYKVSNRFSGVPDRFSGSGSGTDFTLKISRVEAEDVGVYYCSQNTHVPPTFGQGTKVEIERTVAAPSVFIFPPSDEQLKSGTASVVCLLNNFYPREAKVQWKVDNALQSGNSQESVTEQDSKDSTYSLSSTLTLSKADYEKHKVYACEVTHQGLSSPVTKSFNRGEC
notes: Anti-glypican-3 IgG1 heterodimer; S239D in H1, S239D/A330L/I332E in H2
Take B4: the KD ratio with FcγRIIIa was found to be 4.9 fold.

B5: GpH7-A44/GpH7-B3/GpL16-k0 (antibody, human IgG1, kappa)
heavy 1: QVQLVQSGAEVKKPGASVTVSCKASGYTFTDYEMHWIRQPPGEGLEWIGAIDPKTGDTAYSESFQDRVTLTADKSTSTAYMELSSLTSEDTAVYYCTRFYSYTYWGQGTLVTVSSASTKGPSVFPLAPSSKSTSGGTAALGCLVKDYFPEPVTVSWNSGALTSGVHTFPAVLQSSGLYSLSSVVTVPSSSLGTQTYICNVNHKPSNTKVDKKVEPKSCDKTHTCPPCPAPELLGGPSVFLFPPKPKDTLMISRTPEVTCVVVDVSHEDPEVKFNWYVDGVEVHNAKTKPREEQYNSTYRVVSVLTVLHQDWLNGKEYKCKVSNKALPAPEEKTISKAKGQPREPQVYTLPPSRKELTKNQVSLTCLVKGFYPSDIAVEWESNGQPENNYKTTPPVLDSDGSFFLYSKLTVDKSRWQQGNVFSCSVMHEALHNRYTQKSLSLSP
heavy 2: not shown
light: DIVMTQSPLSLPVTPGEPASISCQASESLVHSNRNTYLHWYLQKPGQSPQLLIYKVSNRFSGVPDRFSGSGSGTDFTLKISRVEAEDVGVYYCSQNTHVPPTFGQGTKVEIERTVAAPSVFIFPPSDEQLKSGTASVVCLLNNFYPREAKVQWKVDNALQSGNSQESVTEQDSKDSTYSLSSTLTLSKADYEKHKVYACEVTHQGLSSPVTKSFNRGEC
notes: Heterodimerized antibody with I332E in one H chain only
Consider B5, for which, in assay [2], the KD ratio was 4.4 fold (KD of GpH7-A5/GpH7-B3/GpL16-k0 divided by KD of the antibody).

B6: GpH7-A44/GpH7-B80/GpL16-k0 (antibody, human IgG1, kappa)
heavy 1: QVQLVQSGAEVKKPGASVTVSCKASGYTFTDYEMHWIRQPPGEGLEWIGAIDPKTGDTAYSESFQDRVTLTADKSTSTAYMELSSLTSEDTAVYYCTRFYSYTYWGQGTLVTVSSASTKGPSVFPLAPSSKSTSGGTAALGCLVKDYFPEPVTVSWNSGALTSGVHTFPAVLQSSGLYSLSSVVTVPSSSLGTQTYICNVNHKPSNTKVDKKVEPKSCDKTHTCPPCPAPELLGGPSVFLFPPKPKDTLMISRTPEVTCVVVDVSHEDPEVKFNWYVDGVEVHNAKTKPREEQYNSTYRVVSVLTVLHQDWLNGKEYKCKVSNKALPAPEEKTISKAKGQPREPQVYTLPPSRKELTKNQVSLTCLVKGFYPSDIAVEWESNGQPENNYKTTPPVLDSDGSFFLYSKLTVDKSRWQQGNVFSCSVMHEALHNRYTQKSLSLSP
heavy 2: not shown
light: DIVMTQSPLSLPVTPGEPASISCQASESLVHSNRNTYLHWYLQKPGQSPQLLIYKVSNRFSGVPDRFSGSGSGTDFTLKISRVEAEDVGVYYCSQNTHVPPTFGQGTKVEIERTVAAPSVFIFPPSDEQLKSGTASVVCLLNNFYPREAKVQWKVDNALQSGNSQESVTEQDSKDSTYSLSSTLTLSKADYEKHKVYACEVTHQGLSSPVTKSFNRGEC
For the molecule B6, the KD ratio in assay [2] was 7.1 fold (KD of GpH7-A5/GpH7-B3/GpL16-k0 divided by KD of the antibody).
